We go through 7 substances from PMC12691818.

For experiment [1], the target named is Xenopus laevis PP1c (XePP1c) (Xenopus laevis (endogenous in oocytes)).
The target of experiment [2] is PfPP1c (Plasmodium falciparum Protein Phosphatase 1 catalytic subunit, recombinant) (Plasmodium falciparum) (UniProt Q8ILV1).
The target in experiment [3] is Xenopus laevis PP1c (XePP1c) (Xenopus laevis (endogenous in oocytes)). This is another data set of the same source.
The target is the same in experiment [4]. The source holds these as a separate data set.

In experiment [1], “PbRpt3-KATA (HA-tagged PbRpt3 mutated 200-KVTF-203 to 200-KATA-203) (natural protein)” yielded a percentage of GVBD of progesterone-treated Xenopus oocytes microinjected with PbRpt3-KATA cRNA (control 80%) of 26.6 % GVBD.

For the substance “PbRpt3-30 kDa (recombinant truncated PbRpt3, aa 131-395) (domain or fragment)”, the PfPP1c phosphatase activity on pNPP; 37.5 to 600 pmol PbRpt3-30 kDa preincubated with 1 µg PfPP1c; value at 600 pmol (% PP1c activity) in experiment [2] is more than 400.

Consider “PbRpt3-RKAEA (HA-tagged PbRpt3 mutated 305-RKIEF-309 to 305-RKAEA-309) (natural protein)”, for which the percentage of GVBD of progesterone-treated Xenopus oocytes microinjected with PbRpt3-RKAEA cRNA (control 80%) in experiment [1] turned out to be 23.3 % GVBD.

Take “HA-tagged PbRpt3 protein (full-size 45 kDa native PbRpt3 translated from microinjected cRNA in Xenopus oocytes) (from UniProt A0A509AIQ8 1-395) (natural protein)”: the percentage of GVBD of progesterone-treated Xenopus oocytes microinjected with PbRpt3 cRNA (PG alone 86.7%) in experiment [3] is 1.7 % GVBD. This substance yielded a percentage of GVBD of progesterone-treated Xenopus oocytes microinjected with PbRpt3 cRNA (control 80%) in experiment [1] of 1.7 % GVBD.

For “PbRpt3 ATP-binding site mutant (HA-tagged PbRpt3 substituted for alanines in positions K188, D241, N288 and Q356) (natural protein)”, the percentage of GVBD of progesterone-treated Xenopus oocytes microinjected with PbRpt3 cRNA mutated for the ATP-binding sites (PbRpt3 1.7%, PG-treated oocytes 80.8%) in experiment [4] worked out at 39.2 % GVBD.

For the substance “PfI2 (inhibitor of PP1c, Plasmodium falciparum) (natural protein)”, the PfPP1c phosphatase activity on pNPP; 37.5 to 600 pmol PfI2 with 1 µg PfPP1c; value at 600 pmol in experiment [2] was determined as 60%.

“PbRpt3-KATA/RKAEA (HA-tagged PbRpt3 with both RVxF motifs mutated) (natural protein)” came in with a percentage of GVBD of progesterone-treated Xenopus oocytes microinjected with PbRpt3-KATA/RKAEA cRNA (control 80%) in experiment [1] of 76 % GVBD.
